Reference: paper PMC12409433

Tests used:
[1] = target: Klebsiella pneumoniae N-acetylglucosamine-6-phosphate deacetylase (NagA) (Klebsiella pneumoniae); assay: SEC; Superdex 200 Increase 10/300 GL, 20 mM Tris-HCl pH 8.0, 150 mM NaCl; apparent mass by calibration with molecular weight standards
[2] = target: Klebsiella pneumoniae N-acetylglucosamine-6-phosphate deacetylase (NagA) (Klebsiella pneumoniae); assay: SEC-MALS; Superdex 200 Increase 10/300 GL, 0.5 ml/min, 20°C, DAWN-Treos detector; BSA for calibration

stoichiometry N [1]: 4
stoichiometry N [2]: 4
Substance: Klebsiella pneumoniae N-acetylglucosamine-6-phosphate deacetylase (NagA) (enzyme)
